How the values were obtained:
HeLa Kyoto [1] = experiment: solubility in G1/S (NP-40 vs SDS abundance) (log2 ratio); higher = more soluble; settings: cell cycle stage: G1/S
HeLa Kyoto [2] = experiment: thermal stability score vs G1/S (z-score of summed log2 fold changes over temperatures); higher = more thermally stable than in G1/S
HeLa Kyoto [3] = experiment: solubility change mitosis vs G1/S (difference of NP-40 vs SDS log2 ratios) (log2 ratio difference); higher = more soluble in mitosis
HeLa Kyoto [4] = experiment: melting temperature (median over replicates), in situ; higher = more thermally stable
[5] = cell cycle stage: early G1 (4.5 h after nocodazole release)
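For melting temperature (median over replicates), in situ in this document: HeLa Kyoto cells synchronized by double thymidine or nocodazole block, proteins quantified by TMT10plex mass spectrometry, three independent biological replicates.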
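For solubility change mitosis vs G1/S (difference of NP-40 vs SDS log2 ratios) in this document: synchronized HeLa Kyoto cells (double thymidine block for G1/S, nocodazole release for mitosis), protein amounts in NP-40 versus SDS lysates quantified by mass spectrometry, three biological replicates.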
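For solubility in G1/S (NP-40 vs SDS abundance) in this document: HeLa Kyoto cells arrested at G1/S by double thymidine block, proteins quantified by TMT10plex mass spectrometry in mild NP-40 versus SDS extracts, three biological replicates.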
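For thermal stability score vs G1/S (z-score of summed log2 fold changes over temperatures) in this document: synchronized HeLa Kyoto cells, proteins quantified by TMT10plex mass spectrometry, three biological replicates, mitosis taken 0.5 h after nocodazole release, G1/S directly after double thymidine block.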

Substance | solubility in G1/S (log2) (HeLa Kyoto [1]) | thermal stability score (HeLa Kyoto [2]; [5]) | thermal stability score (HeLa Kyoto [2]; cell cycle stage: mitosis) | solubility change mitosis (log2) (HeLa Kyoto [3]) | melting temperature (HeLa Kyoto [4]; cell cycle stage: G1/S) [°C] | melting temperature (HeLa Kyoto [4]; cell cycle stage: mitosis) [°C]
MAAGIVASRRLRDLLTRRLTGSNYPGLSISLRLTGSSAQEEASGVALGEAPDHSYESLRVTSAQKHVLHVQLNRPNKRNAMNKVFWREMVECFNKISRDADCRAVVISGAGKMFTAGIDLMDMASDILQPKGDDVARISWYLRDIITRYQETFNVIERCPKPVIAAVHGGCIGGGVDLVTACDIRYCAQDAFFQVKEVDVGLAADVGTLQRLPKVIGNQSLVNELAFTARKMMADEALGSGLVSRVFPDKEVMLDAALALAAEISSKSPVAVQSTKVNLLYSRDHSVAESLNYVASWNMSMLQTQDLVKSVQATTENKELKTVTFSKL [ECH1] | 0.165 | -1.52 | -2.22 | -0.00393 | 53.4 | 53.5
GCC2 | 0.461 | 0.337 | 1.48 | -0.00143 | 48.9 | 49.4
MQTPVNIPVPVLRLPRGPDGFSRGFAPDGRRAPLRPEVPEIQECPIAQESLESQEQRARAALRERYLRSLLAMVGHQVSFTLHEGVRVAAHFGATDLDVANFYVSQLQTPIGVQAEALLRCSDIISYTFKP [GEMIN7] | -0.401 | -0.755 | -0.344 | -0.0302 | 53 | –
MLRACQLSGVTAAAQSCLCGKFVLRPLRPCRRYSTSGSSGLTTGKIAGAGLLFVGGGIGGTILYAKWDSHFRESVEKTIPYSDKLFEMVLGPAAYNVPLPKKSIQSGPLKISSVSEVMKESKQPASQLQKQKGDTPASATAPTEAAQIISAAGDTLSVPAPAVQPEESLKTDHPEIGEGKPTPALSEEASSSSIRERPPEEVAARLAQQEKQEQVKIESLAKSLEDALRQTASVTLQAIAAQNAAVQAVNAHSNILKAAMDNSEIAGEKKSAQWRTVEGALKERRKAVDEAADALLKAKEELEKMKSVIENAKKKEVAGAKPHITAAEGKLHNMIVDLDNVVKKVQAAQSEAKVVSQYHELVVQARDDFKRELDSITPEVLPGWKGMSVSDLADKLSTDDLNSLIAHAHRRIDQLNRELAEQKATEKQHITLALEKQKLEEKRAFDSAVAKALEHHRSEIQAEQDRKIEEVRDAMENEMRTQLRRQAAAHTDHLRDVLRVQEQELKSEFEQNLSEKLSEQELQFRRLSQEQVDNFTLDINTAYARLRGIEQAVQSHAVAEEEARKAHQLWLSVEALKYSMKTSSAETPTIPLGSAVEAIKANCSDNEFTQALTAAIPPESLTRGVYSEETLRARFYAVQKLARRVAMIDETRNSLYQYFLSYLQSLLLFPPQQLKPPPELCPEDINTFKLLSYASYCIEHGDLELAAKFVNQLKGESRRVAQDWLKEARMTLETKQIVEILTAYASAVGIGTTQVQPE [IMMT] | 0.38 | 0.171 | -1.21 | 0.0268 | 53.2 | 52
MASPSLERPEKGAGKSEFRNQKPKPENQDESELLTVPDGWKEPAFSKEDNPRGLLEESSFATLFPKYREAYLKECWPLVQKALNEHHVNATLDLIEGSMTVCTTKKTFDPYIIIRARDLIKLLARSVSFEQAVRILQDDVACDIIKIGSLVRNKERFVKRRQRLIGPKGSTLKALELLTNCYIMVQGNTVSAIGPFSGLKEVRKVVLDTMKNIHPIYNIKSLMIKRELAKDSELRSQSWERFLPQFKHKNVNKRKEPKKKTVKKEYTPFPPPQPESQIDKELASGEYFLKANQKKRQKMEAIKAKQAEAISKRQEERNKAFIPPKEKPIVKPKEASTETKIDVASIKEKVKKAKNKKLGALTAEEIALKMEADEKKKKKKK [KRR1] | -1.22 | 3.32 | 4.5 | 0.79 | 51.3 | 50.1
MSPAPDAAPAPASISLFDLSADAPVFQGLSLVSHAPGEALARAPRTSCSGSGERESPERKLLQGPMDISEKLFCSTCDQTFQNHQEQREHYKLDWHRFNLKQRLKDKPLLSALDFEKQSSTGDLSSISGSEDSDSASEEDLQTLDRERATFEKLSRPPGFYPHRVLFQNAQGQFLYAYRCVLGPHQDPPEEAELLLQNLQSRGPRDCVVLMAAAGHFAGAIFQGREVVTHKTFHRYTVRAKRGTAQGLRDARGGPSHSAGANLRRYNEATLYKDVRDLLAGPSWAKALEEAGTILLRAPRSGRSLFFGGKGAPLQRGDPRLWDIPLATRRPTFQELQRVLHKLTTLHVYEEDPREAVRLHSPQTHWKTVREERKKPTEEEIRKICRDEKEALGQNEESPKQGSGSEGEDGFQVELELVELTVGTLDLCESEVLPKRRRRKRNKKEKSRDQEAGAHRTLLQQTQEEEPSTQSSQAVAAPLGPLLDEAKAPGQPELWNALLAACRAGDVGVLKLQLAPSPADPRVLSLLSAPLGSGGFTLLHAAAAAGRGSVVRLLLEAGADPTVQDSRARPPYTVAADKSTRNEFRRFMEKNPDAYDYNKAQVPGPLTPEMEARQATRKREQKAARRQREEQQQRQQEQEEREREEQRRFAALSDREKRALAAERRLAAQLGAPTSPIPDSAIVNTRRCWSCGASLQGLTPFHYLDFSFCSTRCLQDHRRQAGRPSS [ANKZF1] | 0.0804 | 0.638 | 1.02 | -0.104 | 49.7 | 50.1

From the supplement of paper PMC5998384
